# Patent publication US8748182B2, “Mutant proteins and methods for producing them” (Heptares Therapeutics Limited, priority 2007, dated 2014)
# Assay: Thermostability of neurotensin receptor (NTR) mutants (3H-neurotensin binding)
# Assay type: physicochemical
# Conditions: Ligand(+) format
row,Molecule,"thermostability, heated in the presence of 3H-neurotensin"
1,"A69L: NTR point mutant (protein, UniProt P20789 1-424, looked up, variant A69L) Neurotensin receptor type 1: MHLNSSVPQGTPGEPDAQPFSGPQSEMEATFLALSLSNGSGNTSESDTAGPNSDLDVNTDIYSKVLVTLIYLALFVVGTVGNSVTAFTLARKKSLQSLQSTVHYHLGSLALSDLLILLLAMPVELYNFIWVHHPWAFGDAGCRGYYFLRDACTYATALNVASLSVERYLAICHPFKAKTLMSRSRTKKFISAIWLASALLAIPMLFTMGLQNRSGDGTHPGGLVCTPIVDTATVKVVIQVNTFMSFLFPMLVISILNTVIANKLTVMVHQAAEQGRVCTVGTHNGLEHSTFNMTIEPGRVQALRHGVLVLRAVVIAFVVCWLPYHVRRLMFCYISDEQWTTFLFDFYHYFYMLTNALFYVSSAINPILYNLVSANFRQVFLSTLACLCPGWRHRRKKRPTFSRKPNSMSSNHAFSTSATRETLY",improved thermostability
2,"L310A: NTR point mutant (protein, UniProt P20789 1-424, looked up, variant L310A) Neurotensin receptor type 1: MHLNSSVPQGTPGEPDAQPFSGPQSEMEATFLALSLSNGSGNTSESDTAGPNSDLDVNTDIYSKVLVTAIYLALFVVGTVGNSVTAFTLARKKSLQSLQSTVHYHLGSLALSDLLILLLAMPVELYNFIWVHHPWAFGDAGCRGYYFLRDACTYATALNVASLSVERYLAICHPFKAKTLMSRSRTKKFISAIWLASALLAIPMLFTMGLQNRSGDGTHPGGLVCTPIVDTATVKVVIQVNTFMSFLFPMLVISILNTVIANKLTVMVHQAAEQGRVCTVGTHNGLEHSTFNMTIEPGRVQALRHGVLVARAVVIAFVVCWLPYHVRRLMFCYISDEQWTTFLFDFYHYFYMLTNALFYVSSAINPILYNLVSANFRQVFLSTLACLCPGWRHRRKKRPTFSRKPNSMSSNHAFSTSATRETLY",improved thermostability
3,"V313A: NTR point mutant (protein, UniProt P20789 1-424, looked up, variant V313A) Neurotensin receptor type 1: MHLNSSVPQGTPGEPDAQPFSGPQSEMEATFLALSLSNGSGNTSESDTAGPNSDLDVNTDIYSKVLVTAIYLALFVVGTVGNSVTAFTLARKKSLQSLQSTVHYHLGSLALSDLLILLLAMPVELYNFIWVHHPWAFGDAGCRGYYFLRDACTYATALNVASLSVERYLAICHPFKAKTLMSRSRTKKFISAIWLASALLAIPMLFTMGLQNRSGDGTHPGGLVCTPIVDTATVKVVIQVNTFMSFLFPMLVISILNTVIANKLTVMVHQAAEQGRVCTVGTHNGLEHSTFNMTIEPGRVQALRHGVLVLRAAVIAFVVCWLPYHVRRLMFCYISDEQWTTFLFDFYHYFYMLTNALFYVSSAINPILYNLVSANFRQVFLSTLACLCPGWRHRRKKRPTFSRKPNSMSSNHAFSTSATRETLY",improved thermostability
4,"F342A: NTR point mutant (protein, UniProt P20789 1-424, looked up, variant F342A) Neurotensin receptor type 1: MHLNSSVPQGTPGEPDAQPFSGPQSEMEATFLALSLSNGSGNTSESDTAGPNSDLDVNTDIYSKVLVTAIYLALFVVGTVGNSVTAFTLARKKSLQSLQSTVHYHLGSLALSDLLILLLAMPVELYNFIWVHHPWAFGDAGCRGYYFLRDACTYATALNVASLSVERYLAICHPFKAKTLMSRSRTKKFISAIWLASALLAIPMLFTMGLQNRSGDGTHPGGLVCTPIVDTATVKVVIQVNTFMSFLFPMLVISILNTVIANKLTVMVHQAAEQGRVCTVGTHNGLEHSTFNMTIEPGRVQALRHGVLVLRAVVIAFVVCWLPYHVRRLMFCYISDEQWTTALFDFYHYFYMLTNALFYVSSAINPILYNLVSANFRQVFLSTLACLCPGWRHRRKKRPTFSRKPNSMSSNHAFSTSATRETLY",improved thermostability
5,"V360A: NTR point mutant (protein, UniProt P20789 1-424, looked up, variant V360A) Neurotensin receptor type 1: MHLNSSVPQGTPGEPDAQPFSGPQSEMEATFLALSLSNGSGNTSESDTAGPNSDLDVNTDIYSKVLVTAIYLALFVVGTVGNSVTAFTLARKKSLQSLQSTVHYHLGSLALSDLLILLLAMPVELYNFIWVHHPWAFGDAGCRGYYFLRDACTYATALNVASLSVERYLAICHPFKAKTLMSRSRTKKFISAIWLASALLAIPMLFTMGLQNRSGDGTHPGGLVCTPIVDTATVKVVIQVNTFMSFLFPMLVISILNTVIANKLTVMVHQAAEQGRVCTVGTHNGLEHSTFNMTIEPGRVQALRHGVLVLRAVVIAFVVCWLPYHVRRLMFCYISDEQWTTFLFDFYHYFYMLTNALFYASSAINPILYNLVSANFRQVFLSTLACLCPGWRHRRKKRPTFSRKPNSMSSNHAFSTSATRETLY",improved thermostability
6,"N370A: NTR point mutant (protein, UniProt P20789 1-424, looked up, variant N370A) Neurotensin receptor type 1: MHLNSSVPQGTPGEPDAQPFSGPQSEMEATFLALSLSNGSGNTSESDTAGPNSDLDVNTDIYSKVLVTAIYLALFVVGTVGNSVTAFTLARKKSLQSLQSTVHYHLGSLALSDLLILLLAMPVELYNFIWVHHPWAFGDAGCRGYYFLRDACTYATALNVASLSVERYLAICHPFKAKTLMSRSRTKKFISAIWLASALLAIPMLFTMGLQNRSGDGTHPGGLVCTPIVDTATVKVVIQVNTFMSFLFPMLVISILNTVIANKLTVMVHQAAEQGRVCTVGTHNGLEHSTFNMTIEPGRVQALRHGVLVLRAVVIAFVVCWLPYHVRRLMFCYISDEQWTTFLFDFYHYFYMLTNALFYVSSAINPILYALVSANFRQVFLSTLACLCPGWRHRRKKRPTFSRKPNSMSSNHAFSTSATRETLY",improved thermostability
7,"S373A: NTR point mutant (protein, UniProt P20789 1-424, looked up, variant S373A) Neurotensin receptor type 1: MHLNSSVPQGTPGEPDAQPFSGPQSEMEATFLALSLSNGSGNTSESDTAGPNSDLDVNTDIYSKVLVTAIYLALFVVGTVGNSVTAFTLARKKSLQSLQSTVHYHLGSLALSDLLILLLAMPVELYNFIWVHHPWAFGDAGCRGYYFLRDACTYATALNVASLSVERYLAICHPFKAKTLMSRSRTKKFISAIWLASALLAIPMLFTMGLQNRSGDGTHPGGLVCTPIVDTATVKVVIQVNTFMSFLFPMLVISILNTVIANKLTVMVHQAAEQGRVCTVGTHNGLEHSTFNMTIEPGRVQALRHGVLVLRAVVIAFVVCWLPYHVRRLMFCYISDEQWTTFLFDFYHYFYMLTNALFYVSSAINPILYNLVAANFRQVFLSTLACLCPGWRHRRKKRPTFSRKPNSMSSNHAFSTSATRETLY",improved thermostability
8,"F380A: NTR point mutant (protein, UniProt P20789 1-424, looked up, variant F380A) Neurotensin receptor type 1: MHLNSSVPQGTPGEPDAQPFSGPQSEMEATFLALSLSNGSGNTSESDTAGPNSDLDVNTDIYSKVLVTAIYLALFVVGTVGNSVTAFTLARKKSLQSLQSTVHYHLGSLALSDLLILLLAMPVELYNFIWVHHPWAFGDAGCRGYYFLRDACTYATALNVASLSVERYLAICHPFKAKTLMSRSRTKKFISAIWLASALLAIPMLFTMGLQNRSGDGTHPGGLVCTPIVDTATVKVVIQVNTFMSFLFPMLVISILNTVIANKLTVMVHQAAEQGRVCTVGTHNGLEHSTFNMTIEPGRVQALRHGVLVLRAVVIAFVVCWLPYHVRRLMFCYISDEQWTTFLFDFYHYFYMLTNALFYVSSAINPILYNLVSANFRQVALSTLACLCPGWRHRRKKRPTFSRKPNSMSSNHAFSTSATRETLY",improved thermostability
9,"A73L: NTR point mutant (protein, UniProt P20789 1-424, looked up, variant A73L) Neurotensin receptor type 1: MHLNSSVPQGTPGEPDAQPFSGPQSEMEATFLALSLSNGSGNTSESDTAGPNSDLDVNTDIYSKVLVTAIYLLLFVVGTVGNSVTAFTLARKKSLQSLQSTVHYHLGSLALSDLLILLLAMPVELYNFIWVHHPWAFGDAGCRGYYFLRDACTYATALNVASLSVERYLAICHPFKAKTLMSRSRTKKFISAIWLASALLAIPMLFTMGLQNRSGDGTHPGGLVCTPIVDTATVKVVIQVNTFMSFLFPMLVISILNTVIANKLTVMVHQAAEQGRVCTVGTHNGLEHSTFNMTIEPGRVQALRHGVLVLRAVVIAFVVCWLPYHVRRLMFCYISDEQWTTFLFDFYHYFYMLTNALFYVSSAINPILYNLVSANFRQVFLSTLACLCPGWRHRRKKRPTFSRKPNSMSSNHAFSTSATRETLY",improved thermostability
10,"P389A: NTR point mutant (protein, UniProt P20789 1-424, looked up, variant P389A) Neurotensin receptor type 1: MHLNSSVPQGTPGEPDAQPFSGPQSEMEATFLALSLSNGSGNTSESDTAGPNSDLDVNTDIYSKVLVTAIYLALFVVGTVGNSVTAFTLARKKSLQSLQSTVHYHLGSLALSDLLILLLAMPVELYNFIWVHHPWAFGDAGCRGYYFLRDACTYATALNVASLSVERYLAICHPFKAKTLMSRSRTKKFISAIWLASALLAIPMLFTMGLQNRSGDGTHPGGLVCTPIVDTATVKVVIQVNTFMSFLFPMLVISILNTVIANKLTVMVHQAAEQGRVCTVGTHNGLEHSTFNMTIEPGRVQALRHGVLVLRAVVIAFVVCWLPYHVRRLMFCYISDEQWTTFLFDFYHYFYMLTNALFYVSSAINPILYNLVSANFRQVFLSTLACLCAGWRHRRKKRPTFSRKPNSMSSNHAFSTSATRETLY",improved thermostability
11,"G390A: NTR point mutant (protein, UniProt P20789 1-424, looked up, variant G390A) Neurotensin receptor type 1: MHLNSSVPQGTPGEPDAQPFSGPQSEMEATFLALSLSNGSGNTSESDTAGPNSDLDVNTDIYSKVLVTAIYLALFVVGTVGNSVTAFTLARKKSLQSLQSTVHYHLGSLALSDLLILLLAMPVELYNFIWVHHPWAFGDAGCRGYYFLRDACTYATALNVASLSVERYLAICHPFKAKTLMSRSRTKKFISAIWLASALLAIPMLFTMGLQNRSGDGTHPGGLVCTPIVDTATVKVVIQVNTFMSFLFPMLVISILNTVIANKLTVMVHQAAEQGRVCTVGTHNGLEHSTFNMTIEPGRVQALRHGVLVLRAVVIAFVVCWLPYHVRRLMFCYISDEQWTTFLFDFYHYFYMLTNALFYVSSAINPILYNLVSANFRQVFLSTLACLCPAWRHRRKKRPTFSRKPNSMSSNHAFSTSATRETLY",improved thermostability
12,"R395A: NTR point mutant (protein, UniProt P20789 1-424, looked up, variant R395A) Neurotensin receptor type 1: MHLNSSVPQGTPGEPDAQPFSGPQSEMEATFLALSLSNGSGNTSESDTAGPNSDLDVNTDIYSKVLVTAIYLALFVVGTVGNSVTAFTLARKKSLQSLQSTVHYHLGSLALSDLLILLLAMPVELYNFIWVHHPWAFGDAGCRGYYFLRDACTYATALNVASLSVERYLAICHPFKAKTLMSRSRTKKFISAIWLASALLAIPMLFTMGLQNRSGDGTHPGGLVCTPIVDTATVKVVIQVNTFMSFLFPMLVISILNTVIANKLTVMVHQAAEQGRVCTVGTHNGLEHSTFNMTIEPGRVQALRHGVLVLRAVVIAFVVCWLPYHVRRLMFCYISDEQWTTFLFDFYHYFYMLTNALFYVSSAINPILYNLVSANFRQVFLSTLACLCPGWRHRAKKRPTFSRKPNSMSSNHAFSTSATRETLY",improved thermostability
